Reference: patent US8809287B2, “Compositions and methods for altering Wnt autocrine signaling” (Icahn School of Medicine at Mount Sinai, priority 2004, dated 2014)
Entries after “also recorded” stand apart in the source; their conditions may differ.

B1: DKK1: Dickkopf-1, secreted Wnt antagonist protein that binds Wnt co-receptor LRP6; used purified, in conditioned media or retrovirally expressed with HA tag (protein, UniProt O94907 32-266, looked up)
Dickkopf-related protein 1: TLNSVLNSNAIKNLPPPLGGAAGHPGSAVSAAPGILYPGGNKYQTIDNYQPYPCAEDEECGTDEYCASPTRGGDAGVQICLACRKRRKRCMRHAMCCPGNYCKNGICVSSDQNHFRGEIEETITESFGNDHSTLDGYSRRTTLSSKMYHTKGQEGSVCLRSSDCASGLCCARHFWSKICKPVLKEGQVCTKHRRKGSHGLEIFQRCYCGEGLSCRIQKDHHQASNSSRLHTCQRH
modifications: HA tag in some uses
B2: FRP1: human secreted Frizzled Related Protein 1, Wnt antagonist; expressed from pBabe-derived retrovirus with carboxy-terminal HA tag (protein, UniProt Q8N474 32-314, looked up)
Secreted frizzled-related …: SEYDYVSFQSDIGPYQSGRFYTKPPQCVDIPADLRLCHNVGYKKMVLPNLLEHETMAEVKQQASSWVPLLNKNCHAGTQVFLCSLFAPVCLDRPIYPCRWLCEAVRDSCEPVMQFFGFYWPEMLKCDKFPEGDVCIAMTPPNATEASKPQGTTVCPPCDNELKSEAIIEHLCASEFALRMKIKEVKKENGDKKIVPKKKKPLKLGPIKKKDLKKLVLYLKNGADCPCHQLDNLSHHFLIMGRKVKSQYLLTAIHKWDKKNKEFKNFMKKMKNHECPTFQSVFK
modifications: C-terminal HA tag
notes: human secreted Frizzled Related Protein 1, Wnt antagonist; expressed from pBabe-derived retrovirus with carboxy-terminal HA tag

Experiments:
Type in all cases: cell-based, human
LEF-1 = assay: Northern blot of LEF-1 in MDAMB157 cells; details: stable expression
Experimental: (§1) Alterations in the expression of a number of genes identified as targets of canonical Wnt signaling have been reported, although it should be noted that there is variability among Wnt target genes in different cell systems (Giles et al., (2003). Biochim. Biophys. Acta 1653:1-24). To investigate the effects of FRP1 and DKK1 inhibition on gene expression in MDAMB157 breast tumor cells, Northern blot analysis was performed on representative Wnt transcriptional targets, including Myc (He et al., (1998) Science 281:1509-1512), the LEF-1 transcription factor (Filali et al., (2002) J. Biol. Chem. 277:33398-33410) and the dominant negative helix-loop-helix transcriptional regulator, Id2 (Rockman et al., (2001) J. Biol. Chem. 276:45113-45119).
(§2) Total RNAs from MDAMB157 cells exogenously expressing vector alone, FRP1, or DKK1 were extracted using Triazol (Invitrogen), separated by agarose gel electrophoresis (1% agarose gel) and transferred to a nylon membrane (Hybond, Pharmacia). Probes were labeled by the Random Prime Labelling System method (Amersham Biosciences), and hybridization was performed overnight utilizing the Hybrisol I solution (Serologicals Corporation) according to the manufacturer's instructions. Normalization was performed utilizing a commercial human GADPH control probe (BD Biosciences Clontech). Probes were labelled with α-^32P-dCTP.

uncomplexed β-catenin [1] = assay: Uncomplexed β-catenin in MDAMB157 breast tumor cells; parameters: levels of uncomplexed β-catenin: dose or concentration left out as unconfirmed; details: for uncomplexed β-catenin levels: stable expression by retroviral mediated transduction
Experimental: (§3) β-catenin levels were assessed using the GST-E-cadherin binding assay, which has been previously described (Bafico et al., (1998) Oncogene 16:2819-2825). Briefly, bacterially expressed GST-E-cadherin was purified with glutathione-Sepharose beads and incubated with 1 mg of each cell lysate. The GST-E-cadherin/[…]-catenin complex bound to the beads was recovered by centrifugation and analyzed by SDS-PAGE followed by immunoblotting. The uncomplexed β-catenin was detected using a monoclonal antibody to β-catenin (Transduction Laboratories). Unphosphorylated β-catenin was detected with a monoclonal antibody specific for β-catenin dephosphorylated at residues 27-37 (Alexis, Läufelfingen, Switzerland). FRP1-HA and DKK1-HA were detected with an anti-HA monoclonal antibody (Hybridoma Center, Mount Sinai School of Medicine, New York).
MDAMB157 cell cultures were exposed to increasing concentrations of purified DKK1, and then were solubilized and analyzed for uncomplexed β-catenin using immunoblot analysis and an anti-[…]-catenin antibody as described in Example 3.
MDAMB157 cells were infected with vector alone, FRP1-HA (described in Example 1), or DKK1-HA (described in Example 1) retroviruses and marker selected. Uncomplexed β-catenin protein levels were analyzed using immunoblot analysis with an anti-β-catenin antibody as described in Example 3. Expression of FRP1-HA or DKK1-HA were assessed by immunblot analysis of lysates using an anti-HA monoclonal antibody (Hybridoma Center, Mount Sinai School of Medicine, New York).

H1355 = assay: tBh-induced apoptosis in H1355 NSCLC cells; details: H1355 NSCLC cells (data not shown)
Experimental: (§4) To assess the effects of Wnt inhibition by FRP1 or DKK1 on the response of MDAMB157 cells to apoptotic stimuli, we exposed AB589 or MDAMB157 cells expressing either vector control, FRP1 or DKK1 to increasing concentrations of tert-butyl hydroperoxide (tBh) (Sigma) a known inducer of oxidative stress that causes DNA damage through reactive oxygen species (ROS) (Macip et al., (2003) Mol. Cell. Biol. 23:8576-8585), and analyzed the apoptotic response. Sub-confluent cultures were treated with increasing amounts of tert-butyl hydroperoxide (tBH) for 2 hours. Twenty-four hours later, cells were washed in PBS, trypsinized and incubated with Annexin and PI using the Annexin-V-Fluos Staining kit (Roche). Fluorescent stained cells were subjected to FACS (Beckton Dickinson FACScan) using Cell Quest 3.2 software (Beckton Dickinson) for acquisition and analysis.
We have also tested the effects of tBh on lung tumor cells with autocrine Wnt signaling in the presence or absence of the Wnt antagonists FRP and DKK. […] These findings indicate that inhibition of a Wnt autocrine signaling mechanism in tumor cells by Wnt antagonists such as FRP or DKK would make them more sensitive to the killing effects of standard chemo or irradiation therapies. We noted that levels of expression of these antagonists decreased with passage of the transfected and marker selected tumor cells.

MDAMB157 cells [2] = assay: Saturation density (cell counts) of MDAMB157 cells; details: MDAMB157 over-expressing antagonist vs vector transduced parental cells
Experimental: MDAMB157 cells exogenously expressing either vector control, FRP1 or DKK I were transferred at 1.5×10^5 cells per well in 6-well plates. Cell counts were performed in duplicate at the indicated times, and values represent the mean of two independent experiments.

ID2 = assay: Northern blot of ID2 in MDAMB157 cells; details: stable expression
Experimental: as §1, §2

uncomplexed β-catenin [3] = assay: Uncomplexed β-catenin in Wnt autocrine tumor cells (summary statements); details: summary of the Examples
Experimental: as §3

AB589 cells = assay: tBh-induced apoptosis (Annexin/PI FACS) in AB589 cells
Experimental: as §4

MYC = assay: Northern blot of MYC in MDAMB157 cells; details: stable expression
Experimental: as §1, §2

cyclin D1 = assay: Northern blot of cyclin D1 in MDAMB157 cells; details: stable expression (data not shown)
Experimental: as §1
as §2, with “α-^32P-dCTP. […]” for “α-^32P-dCTP.”

MDAMB157 cells [4] = assay: tBh-induced apoptosis (Annexin/PI FACS) in MDAMB157 cells; details: each concentration of tBh, over-expression vs vector
Experimental: as §4

AB589 = assay: Saturation density of AB589 cells; details: AB589 infected with retrovirus (data not shown)

Molecule | expression of LEF-1 (LEF-1) | levels of uncomplexed β-catenin (uncomplexed β-catenin [1]; increasing concentrations of purified DKK1) | uncomplexed β-catenin levels (uncomplexed β-catenin [1]) | sensitivity to induction of apoptosis by tBh (H1355) | saturation density (MDAMB157 cells [2]) | expression of ID2 (ID2) | up regulated uncomplexed β-catenin levels (uncomplexed β-catenin [3]) | apoptotic responses compared to the vector infected cells (AB589 cells) | expression of MYC (MYC) | levels of cyclin D1 (cyclin D1) | level of apoptosis (MDAMB157 cells [4]) | saturation density (AB589)
B1 | reduced | dose dependent, marked reduction | dramatic reduction | more sensitive to induction of apoptosis | decreased saturation density | reduced | down regulation; also recorded: striking reduction | no detectable differences | reduced | did not observe significant changes | statistically significant increase | no detectable effect
B2 | reduced | – | dramatic reduction | more sensitive to induction of apoptosis | decreased saturation density | reduced | down regulation | no detectable differences | reduced | did not observe significant changes | statistically significant increase | no detectable effect
